Data published in patent publication US20100015664A1.

What was measured:
[1] = target: T1, Fluorescence-labeled synthetic peptide AG FAGP (not fully specified)
T1 chain: AGFAGP

[2] = target: T2, Fluorescence-labeled synthetic peptide G FAGP (not fully specified)
T2 chain: GFAGP

[3] = target: T3, Fluorescence-labeled synthetic peptide GPAG FAG (not fully specified)
T3 chain: GPAGFAG

[4] = target: T4, Fluorescence-labeled synthetic peptide GPAG FA (not fully specified)
T4 chain: GPAGFA

[5] = target: T5, Fluorescence-labeled synthetic peptide GPAG F (not fully specified)
T5 chain: GPAGF

[6] = target: T6, Fluorescence-labeled synthetic peptide PAG FAGP (not fully specified)
T6 chain: PAGFAGP

[7] = target: T7, Fluorescence-labeled synthetic peptide of Pro-Gln-Gly-Ile-Ala-Gly-Gln (not fully specified)
T7 chain: PQGIAGQ

[8] = target: T8, Nma-Gly-Pro-Ala-Gly-Phe-Ala-Gly-Pro-Lys-(DNP)r-NH2 (not fully specified)
T8 chain: GPAGFAGPK

[9] = target: T9, Nma-Gly-Pro-Gln-Gly-Phe-Gln-Gly-Pro-Lys-(DNP)r-NH2 (not fully specified)
T9 chain: GPQGFQGPK

[10] = target: T10, Nma-Thr-Gln-Ser-Leu-Val-Thr-Pro-Lys-(DNP)r-NH2 (not fully specified)
T10 chain: TQSLVTPK

B1: Protease of the present invention, purified from the culture of Aureobacterium sp. MIM-CG-9535-I (FERM P-15326) (protein)
chain: LIVNTVNSIDDKWSDAQASALTYCVSTAFGARHADVVSAMESGAALWEAASSKIDFIYDSSADANCTTRNNAVLFSVEPVQTTQYIARAFFPSTAPRLQNVLIDDSIWTPGSSWTPTNVLGHELGHVLGFRHEHTRPEAGTCFEDDNWRPLTPYDSSSIMHYPQCNGSSADLSMTSVDTDGVVALYGN
[1]
  Present or Absent of Specific degradation activity: Absent
[2]
  Present or Absent of Specific degradation activity: Absent
[3]
  Present or Absent of Specific degradation activity: Absent
[4]
  Present or Absent of Specific degradation activity: Absent
[5]
  Present or Absent of Specific degradation activity: Absent
[6]
  Present or Absent of Specific degradation activity: Present
[7]
  Protease cutting activity (degradation of synthetic substrate): (X) Does not degrade
[8]
  Present or Absent of Specific degradation activity: Present
  Protease cutting activity (degradation of synthetic substrate): (◯) Degrades
[9]
  Protease cutting activity (degradation of synthetic substrate): (◯) Degrades
[10]
  Protease cutting activity (degradation of synthetic substrate): (◯) Degrades
